Test results reported in patent publication EP4549938A1.

Target: No. 1 APOA2-like protein (vasculitis-associated apolipoprotein A2, VAP2) (human)
Experiment: Western blot band score with VasSF, COVID-19 patient sera at hospital admission (Fig. 4)

B1: VasSF, single chain variable region fragment (ScFv) (scFv, V domains shown)
VH: QVHLVESGGGLVQPGRSLRLSCAVSGFTFASYAMHWVRQAPGKGLEWVAGISKDGSNKRHADSLEGRFTISRDNSKNTLYLQVSGLRAEDTAVYYCARSQDPTDFDWLLSEHWGQGTLVTVSS
**Q.** For B1, which signal score is on record?
**A.** 4 /2 µL serum
